From doi:10.1101/2022.07.10.499479
Where two headings read alike, the source gives them in different places.

What was measured:
[1] = biological target: membrane-anchored iLID (improved Light Induced Dimerization protein with an N-terminal TatA-derived transmembrane helix) (Avena sativa); assay: 3D single-molecule tracking in live cells
[2] = biological target: membrane-anchored iLID (improved Light Induced Dimerization protein with an N-terminal TatA-derived transmembrane helix) (Avena sativa)
[3] = biological target: membrane-anchored iLID (improved Light Induced Dimerization protein with an N-terminal TatA-derived transmembrane helix) (Avena sativa); remark: listed apart in the source
[4] = biological target: membrane-anchored iLID (improved Light Induced Dimerization protein with an N-terminal TatA-derived transmembrane helix) (Avena sativa); assay: 3D single-molecule tracking in live cells; remark: listed apart in the source
[5] = biological target: membrane-anchored iLID (improved Light Induced Dimerization protein with an N-terminal TatA-derived transmembrane helix) (Avena sativa); assay: 3D single-molecule tracking in live cells; remark: listed apart in the source
[6] = biological target: membrane-anchored iLID (improved Light Induced Dimerization protein with an N-terminal TatA-derived transmembrane helix) (Avena sativa); assay: 3D single-molecule tracking in live cells; remark: listed apart in the source

Substance | fraction slowly diffusing (iLID-associated) [1] | fraction of molecules at the membrane [2] | median bound time t (bound) [3] | fraction slowly diffusing (iLID-associated) [4] | Kd [1] | fold increase in affinity upon 488 nm illumination against before [1] | fraction iLID-associated [1] | fraction iLID-associated [5] | fraction iLID-associated [6]
SspB_(nano)-Halo labelled with JFX549 | 48% | > 80% | 350 ms | 56% | – | – | – | – | –
SspB_(micro)-Halo labelled with JFX549 | – | – | 300 ms | – | 510 nM | 2 fold | 45% | 31% | 48%
SspB_(milli)-Halo labelled with JFX549 | – | – | 175 ms | – | – | – | 7% | 6% | –
